Data: patent publication US20130059773

Molecular target: recombinant PCNA (human PCNA cDNA, produced in E. coli from plasmid PETPCNA, purified)

B1: procaspase-9 (protein)
chain: MDEADRRLLRRCRLRLVEELQVDQLWDALLSRELFRPHMIEDIQRAGSGSRRDQARQLIIDLETRGSQALPLFISCLEDTGQDMLASFLRTNRQAAKLSKPTLENLTPVVLRPEIRKPEVLRPETPRPVDIGSGGFGDVGALESLRGNADLAYILSMEPCGHCLIINNVNFCRESGLRTRTGSNIDCEKLRRRFSSLHFMVEVKGDLTAKKMVLALLELAQQDHGALDCCVVVILSHGCQASHLQFPGAVYGTDGCPVSVEKIVNIFNGTSCPSLGGKPKLFFIQACGGEQKDHGFEVASTSPEDESPGSNPEPDATPFQEGLRTFDQLDAISSLPTPSDIFVSYSTFPGFVSWRDPKSGSWYVETLDDIFEQWAHSEDLQSLLLRVANAVSVKGIYKQMPGCFNFLRKKLFFKTS
  procaspase-9 cleavage in an in vitro activation assay (neutrophil cytosol, cytochrome c, dATP; western blot of caspase-9): when purified PCNA was added to the mixture, procaspase-9 cleavage was delayed, with persistent procaspase-9 (47 kDa) and diminished 37-kDa fragment detection
